Experiments:
[1] = biological target: T1, RXR-DBD-EKE-MYC + RAR-DBD-KEK-S-EE heterodimer (UniProt P19793; SEQ:260-356,SEQ:260-363); assay: ELONA; antibody-captured detectors, streptavidin-HRP readout, RT; details: tags: GST, label: 5'-biotin
T1 chain 1: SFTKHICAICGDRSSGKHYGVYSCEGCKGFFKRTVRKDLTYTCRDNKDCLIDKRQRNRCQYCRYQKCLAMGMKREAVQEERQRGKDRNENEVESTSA
T1 chain 2: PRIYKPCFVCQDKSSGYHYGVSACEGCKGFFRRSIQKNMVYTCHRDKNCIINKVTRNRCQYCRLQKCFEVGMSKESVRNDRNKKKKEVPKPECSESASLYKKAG
Procedure: (§1) Method: 96-well microtiter plates were coated with a-EE (Y) and a-MYC (Y) at 10 ng/μl in 100 mM NaHCO3/Na2CO3 (pH 9.6). Excess antibody was removed and wells were blocked using 3% BSA. The biodetectors were then captured in the well as indicated in figures followed by the addition of 50 μl/well of biotinylated-DR5 DNA sequence (BIO-DR5, 5 pmol/μl). Control for specificity is the non-consensus oligo (BIO-non consensus) and un-biotinylated DR5 (competitor) to establish signal specificity. Washes were performed at each step to assure the removal of unbound reagents. Streptavidin-HRP was incubated for 30 min at RT, and after three washes, binding was assessed using TMB substrate. Absorbance was measured at 450 nm. Samples are in duplicate.
(§2) ELISA assays were carried out by coating 500 ng of α-MYC and α-EE antibodies diluted in 100 mM bicarbonate buffer (50 ul/well, pH 9.6). Antibodies were coated for 2 h at RT in a microtiter plate (MaxiSorp, Nunc). The wells were then washed once with 200 ul of PBS buffer (pH 7.3) and incubated 0/N at 4° C. with 200 ul of blocking buffer (PBS+3% BSA). The biodetectors where then added at the concentration of 0.7 pmol/well (50 ul/well in 150 mM NaCl, 50 mM Tris pH 7.6, 10% glycerol and 1% BSA) and incubated for 1 h at RT. […]

[2] = biological target: T2, RXR-DBD-EKE-MYC (UniProt P19793 SEQ:260-356); assay: ELONA; RXR alone; monomeric RXR does not bind DR5; details: tags: GST, label: 5'-biotin
T2 chain: T1 chain 1
Procedure: as §1, §2

[3] = biological target: T3, RAR-DBD-KEK-S-EE; assay: ELONA; RAR alone; monomeric RAR does not bind DR5; details: tags: GST, label: 5'-biotin
T3 chain: T1 chain 2
Procedure: as §1, §2

[4] = biological target: RXR-Grb2SH2-MYC + RAR-PLCgNSH2-HA-EE heterodimer; assay: ELONA; antibody- or bis-phosphopeptide-captured; peptide assay in 0.8xSSC, RT; details: tags: GST, MYC-HIS (RXR), label: 5'-biotin
[5] = biological target: RXR-Grb2SH2-MYC; assay: ELONA; single reagent alone; combined RXR/RAR required for signal; details: tags: GST, MYC-HIS; label: 5'-biotin
Procedure: (§3) Streptavidin was coated for 2 h at RT in a microtiter plate (MaxiSorp, Nunc). The wells were then washed once with 200 ul of 0.8× sodium citrate buffer (0.8×SSC: 120 mM NaCl, 12 mM sodium citrate) and incubated 0/N at 4° C. with 200 μl of blocking buffer (3% BSA in 0.8×SSC). The appropriate biotinylated phospho-peptide/s were then added at the concentration of 1.2 pmol/well in 0.8×SSC with additionally 1% BSA and incubated for 1 h at RT. After washing three times with 0.8×SSC containing 0.1% Tween 20 (0.8×SSC/Tw) a blocking step was carried out using biotin at the concentration of 40 ng/well (160 pmol/well in 0.8×SSC buffer). Biotin was incubated for 10 min at RT. The wells were then washed three times with 200 ul of 0.8×SSC containing 0.1% Tween 20 and the biodetectors were then added at the concentration of 2 pmol/well (50 ul/well in 0.8×SSC buffer, 1% BSA).
(§4) The biodetectors were incubated for 1 h at RT. After washing three times with 200 ul of 0.8×SSC/Tw, 50 μl of biotinylated-DR5 DNA sequence (Biot-DR5, 5 pmol/well in 0.8×SSC/Tw buffer, 1% BSA) were added to the wells and plates were incubated for 1 h at RT. After washing three times with 0.8×SSC/Tw, each well was incubated with Streptavidin-HRP conjugated diluted 1:3,000 in 0.8×SSC/Tw containing 1% BSA. […] The reaction was stopped by adding 100 ul of 2 M H₂SO₄ and the optical density (O.D.) was read at the wavelength of 450 nm.

[6] = biological target: T4, RAR-PLCgNSH2-HA-EE; assay: as above; details: tags: GST, HA-EE-HIS; label: 5'-biotin
T4 chain: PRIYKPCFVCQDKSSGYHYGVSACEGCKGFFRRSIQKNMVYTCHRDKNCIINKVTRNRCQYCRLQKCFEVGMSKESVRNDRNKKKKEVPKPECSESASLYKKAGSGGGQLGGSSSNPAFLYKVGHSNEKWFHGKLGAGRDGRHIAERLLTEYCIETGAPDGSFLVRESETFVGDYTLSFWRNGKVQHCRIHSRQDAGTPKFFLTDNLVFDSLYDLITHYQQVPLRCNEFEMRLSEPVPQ
Procedure: as §3, §4

B1: BIO-DR5 (dsDNA)
DNA 1: TGGTATCTAGTTATTGCTCAGCGTGCCAGGTCACCGAAAGGTCAGAG
DNA 2: CTCTGACCTTTCGGTGACCTGGCACGCTGAGCAATAACTAGATACCA
binding result [1]: binds | binding result [2]: no binding | binding result [3]: no binding | binding result [4]: binds | binding result [5]: no binding | binding result [6]: no binding

Source: patent publication US20130171644, “COINCIDENCE DETECTION” (KING'S COLLEGE LONDON, published 2013)
